EP4703474A1, “ANTI-LRRC15 ANTIBODY” (priority 2023, dated 2024)
Changes are numbered by the printed parent chain.

What was measured:
[1] = system: LRRC15-negative human lung carcinoma cell line HCC827; assay: In vivo antitumor effect, HCC827 subcutaneous transplant model; conditions: 0.4 mg/kg, tail vein, on Day 10, female SCID mice, huM25-MMAE at 0.4 mg/kg or 3.6 mg/kg
Procedure: The antitumor effects of the antibody-drug conjugates were evaluated by using animal models in which cells of the human tumor cell line had been transplanted into immunodeficient mice. 4 to 6 Week-old SCID mice (CB17/Icr-Prkdc[scid]/CrlCrlj, Jackson Laboratory Japan, Inc.) were habituated for 3 days or more under SPF conditions before experimental use. The mice were fed with sterilized solid feed (FR-2, Funabashi Farms Co., Ltd.) and given sterilized tap water (prepared by adding a solution of 5 to 15 ppm sodium hypochlorite). The major and minor diameters of the transplanted tumors were measured twice a week with an electronic digital caliper ([…] Corporation), and the estimated tumor volume was calculated using the following formula. Estimated tumor volume (mm^3) = 1/2 × major diameter (mm) × [minor diameter (mm)]^2 All antibody-drug conjugates were diluted with ABS and administered into the tail vein at doses shown in each Example. In addition, ABS (vehicle) or control hIgG-PBD prepared in Reference Example 4 was administered as the control group, in a similar manner. 5 to 6 Mice were used per group in the experiment. […]

[2] = system: LRRC15-positive human glioblastoma cell line U118MG; assay: In vivo antitumor effect, U118MG subcutaneous transplant model; conditions: 0.4 mg/kg, tail vein, on Day 17, female SCID mice
Procedure: (§1) The antitumor effects of the antibody-drug conjugates were evaluated by using animal models in which cells of a human tumor cell line had been transplanted into immunodeficient mice, or cells of a mouse tumor cell line had been transplanted into immunocompetent mice. 4 to 6 Week-old SCID mice (CB17/Icr-Prkdc[scid]/CrlCrlj, Jackson Laboratory Japan, Inc.), NSG mice (NOD.Cg-Prkdcscid Il2rgtm1Wjl/SzJ, Jackson Laboratory Japan, Inc.), or B6J mice (C57BL/6J, Jackson Laboratory Japan, Inc.) were habituated for 3 days or more under SPF conditions before experimental use. The mice were fed with sterilized solid feed and given sterilized tap water. The major and minor diameters of the transplanted tumors were measured twice a week with an electronic digital caliper (Mitutoyo Corporation), and the estimated tumor volume was calculated using the following formula. Estimated tumor volume (mm^3) = 1/2 × major diameter (mm) × [minor diameter (mm)]^2 All antibody-drug conjugates were diluted with ABS and administered into the tail vein at doses shown in each Example. In addition, ABS (vehicle) or control hIgG-PBD prepared in Reference Example 4 was administered as the control group, in a similar manner. 5 to 6 Mice were used per group in the experiment. […]

[3] = system: Triple-negative breast carcinoma cell line HCC1806; assay: In vivo antitumor effect, HCC1806 subcutaneous transplant model; conditions: 0.4 mg/kg, tail vein, on Day 7, female SCID mice
Procedure: as §1, with “experiment. To analyze the LRRC15 expression in mouse tumor models, immunohistochemical staining of LRRC15 was performed.” for “experiment.”

B1: H02L01-PBD (conjugate)
heavy: EVQLVESGGGLVQPGGSLRLSCAASGFTFRDYYMAWVRQAPGKGLEWVSSIGFDESRTYYADSVKGRFTISRDDSKNTLYLQMNSLRAEDTAVYYCARHGVSYYSGDNWFAYWGQGTLVTVSSASTKGPSVFPLAPSSKSTSGGTAALGCLVKDYFPEPVTVSWNSGALTSGVHTFPAVLQSSGLYSLSSVVTVPSSSLGTQTYICNVNHKPSNTKVDKKVEPKSCDKTHTCPPCPAPEAAGGPSVFLFPPKPKDTLMISRTPEVTCVVVDVSHEDPEVKFNWYVDGVEVHNAKTKPREEQYNSTYRVVSVLTVLHQDWLNGKEYKCKVSNKALAAPIEKTISKAKGQPREPQVYTLPPSREEMTKNQVSLTCLVKGFYPSDIAVEWESNGQPENNYKTTPPVLDSDGSFFLYSKLTVDKSRWQQGNVFSCSVMHEALHNHYTQKSLSLSPGK
light: DIQMTQSPSSLSASVGDRVTITCKSSQGLLYSGDQKNYLAWYQQKPGKAPKLLIYWASTRQSGVPSRFSGSGSGTDFTLTISSLQPEDFATYYCQQYYDPPYTFGQGTKVEIKRTVAAPSVFIFPPSDEQLKSGTASVVCLLNNFYPREAKVQWKVDNALQSGNSQESVTEQDSKDSTYSLSSTLTLSKADYEKHKVYACEVTHQGLSSPVTKSFNRGEC
[1]
  antitumor effect (estimated tumor volume): antitumor activity higher than that of the vehicle, the control hIgG-PBD, and huM25-MMAE
[2]
  antitumor effect (estimated tumor volume): antitumor activity higher than that of the vehicle and the control hIgG-PBD
[3]
  antitumor effect (estimated tumor volume): antitumor activity higher than that of the vehicle

B2: H02L01-V1-PBD (conjugate)
heavy: B1 heavy with Y103K
light: B1 light
[1]
  antitumor effect (estimated tumor volume): antitumor activity higher than that of the vehicle, the control hIgG-PBD, and huM25-MMAE
[2]
  antitumor effect (estimated tumor volume): antitumor activity higher than that of the vehicle and the control hIgG-PBD
[3]
  antitumor effect (estimated tumor volume): antitumor activity higher than that of the vehicle
